The text below walks through data of paper PMC4417145.

This data set addresses T1, HMGA2 (high-mobility-group protein AT-hook 2) (mammalian (species ), UniProt P52926 1-109).
T1 sequence: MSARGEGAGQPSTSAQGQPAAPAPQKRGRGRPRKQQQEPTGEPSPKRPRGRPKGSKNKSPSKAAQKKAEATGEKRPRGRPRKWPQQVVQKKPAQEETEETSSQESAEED
Put plainly: PDI-ELISA. In general terms: An ELISA detects its analyte on a solid surface through an enzyme-linked reagent.

B1: FL842/FL843 (SELEX1 duplex) (dsDNA)
DNA 1: CCCCCCATATTCGCGATTATTGCGC
DNA 2: GCGCAATAATCGCGAATATGGGGGG
Consider B1, for which the binding result is on record as “binds”.
